Test in all cases: holdup assay
Holding throughout (set-up): key: below the threshold = too weak to quantify, mostly under pKd 3.1 to 4
Settings in all cases: plain residues with an end cap or a label only (N-terminal biotin on a linker: ado-ado)

Test [1] addresses T1, NHERF3_1, Q5T2W1.
T1 sequence (Q5T2W1 4-100, limits assumed, looked up): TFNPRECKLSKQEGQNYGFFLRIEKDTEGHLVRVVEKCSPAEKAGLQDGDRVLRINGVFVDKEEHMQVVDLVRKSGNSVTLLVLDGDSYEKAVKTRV

Test [2] concerns the target MAGI2_3, Q86UL8.
The target of test [3] is Inadl_5, Q8NI35.
Chain of Inadl_5, Q8NI35 (Q8NI35 673-780): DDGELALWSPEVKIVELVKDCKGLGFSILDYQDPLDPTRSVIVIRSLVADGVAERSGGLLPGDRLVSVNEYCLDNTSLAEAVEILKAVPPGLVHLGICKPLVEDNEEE
Test [4] has as its target T2, PTPN13_1, Q12923.
T2 sequence (Q12923 1088-1188, limits assumed, looked up): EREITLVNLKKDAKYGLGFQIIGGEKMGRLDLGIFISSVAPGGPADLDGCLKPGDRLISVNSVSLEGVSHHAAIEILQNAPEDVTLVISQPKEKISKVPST

The target of test [5] is T3, APBA1_1, Q02410.
T3 sequence (Q02410 651-752, limits assumed, looked up): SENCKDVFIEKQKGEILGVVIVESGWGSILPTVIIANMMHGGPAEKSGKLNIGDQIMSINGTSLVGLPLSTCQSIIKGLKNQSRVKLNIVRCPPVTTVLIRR

In test [6] the target is T4, DFNB31_1, Q9P202.
T4 sequence (Q9P202 135-233, limits assumed, looked up): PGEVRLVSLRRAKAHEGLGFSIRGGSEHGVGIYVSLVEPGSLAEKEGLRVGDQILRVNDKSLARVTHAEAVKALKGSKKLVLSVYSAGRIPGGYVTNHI

The target of test [7] is T5, NHERF3_4, Q5T2W1.
T5 sequence (Q5T2W1 373-468, limits assumed, looked up): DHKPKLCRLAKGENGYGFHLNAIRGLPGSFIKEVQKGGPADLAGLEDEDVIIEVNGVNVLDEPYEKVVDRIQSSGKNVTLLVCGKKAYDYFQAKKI

Test [8] concerns the target FRMPD3, Q5JV73.
For test [9], the target named is T6, APBA3_1, O96018.
T6 sequence (O96018 389-490, limits assumed, looked up): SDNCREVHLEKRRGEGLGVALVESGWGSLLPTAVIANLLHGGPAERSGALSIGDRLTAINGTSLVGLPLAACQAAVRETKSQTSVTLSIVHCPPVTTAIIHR

Test [10] deals with GRIP2_7, Q9C0E4.
Chain of GRIP2_7, Q9C0E4 (Q9C0E4 934-1023): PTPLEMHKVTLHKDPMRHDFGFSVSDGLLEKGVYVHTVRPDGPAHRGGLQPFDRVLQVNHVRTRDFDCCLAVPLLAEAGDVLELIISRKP
Test [11] has as its target FRMPD4, Q14CM0.
In test [12] the target is Inadl_2, Q8NI35.
Chain of Inadl_2, Q8NI35 (Q8NI35 238-335): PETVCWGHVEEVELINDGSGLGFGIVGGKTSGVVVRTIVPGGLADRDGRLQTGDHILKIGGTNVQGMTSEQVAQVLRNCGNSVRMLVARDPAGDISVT
The target of test [13] is T7, GRIP1_7, Q9Y3R0.
T7 sequence (Q9Y3R0 999-1096, limits assumed, looked up): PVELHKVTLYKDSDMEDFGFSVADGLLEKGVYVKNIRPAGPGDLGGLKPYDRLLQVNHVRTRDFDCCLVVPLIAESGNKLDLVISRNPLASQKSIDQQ

Test [14] deals with T8, FRMPD1, Q5SYB0.
T8 sequence (Q5SYB0 52-145, limits assumed, looked up): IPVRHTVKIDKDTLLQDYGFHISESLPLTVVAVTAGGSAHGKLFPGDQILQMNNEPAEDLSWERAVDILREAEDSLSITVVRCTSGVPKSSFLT

Test [15] concerns the target T9, APBA1_2, Q02410.
T9 sequence (Q02410 742-832, limits assumed, looked up): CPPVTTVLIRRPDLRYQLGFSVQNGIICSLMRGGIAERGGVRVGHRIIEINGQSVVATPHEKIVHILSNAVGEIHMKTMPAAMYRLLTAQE

Test [16] has as its target DLG1_1, Q12959.
The target of test [17] is T10, LRRC7, Q96NW7.
T10 sequence (Q96NW7 1440-1537, limits assumed, looked up): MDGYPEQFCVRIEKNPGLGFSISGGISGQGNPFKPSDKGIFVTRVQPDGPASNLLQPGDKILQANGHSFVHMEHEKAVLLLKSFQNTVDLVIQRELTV

The target of test [18] is GRID2IP_1, A4D2P6.
Chain of GRID2IP_1, A4D2P6 (A4D2P6 1-87): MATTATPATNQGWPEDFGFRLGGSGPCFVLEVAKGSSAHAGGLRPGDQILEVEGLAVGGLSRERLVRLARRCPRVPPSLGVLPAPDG
Test [19] deals with DLG2_3, Q15700.
Test [20] has as its target DLG1_2, Q12959.
Test [21] addresses T11, NHERF3_3, Q5T2W1.
T11 sequence (Q5T2W1 238-333, limits assumed, looked up): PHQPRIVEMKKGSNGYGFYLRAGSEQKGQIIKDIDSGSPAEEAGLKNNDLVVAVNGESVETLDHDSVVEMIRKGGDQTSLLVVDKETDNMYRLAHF

In test [22] the target is T12, APBA2_1, Q99767.
T12 sequence (Q99767 563-664, limits assumed, looked up): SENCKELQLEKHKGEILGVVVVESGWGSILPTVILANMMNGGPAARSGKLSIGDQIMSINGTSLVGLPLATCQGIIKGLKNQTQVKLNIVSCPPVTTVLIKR

For test [23], the target named is IL16_4, Q14005.
Chain of IL16_4, Q14005 (Q14005 1229-1329): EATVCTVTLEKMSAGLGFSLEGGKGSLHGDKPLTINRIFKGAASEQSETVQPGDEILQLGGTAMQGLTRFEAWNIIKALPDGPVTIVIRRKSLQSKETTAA
The target of test [24] is DLG1_3, Q12959.
Test [25] concerns the target HTRA2, O43464.
The target in test [26] is MAGI2_2, Q86UL8.
Chain of MAGI2_2, Q86UL8 (Q86UL8 410-522): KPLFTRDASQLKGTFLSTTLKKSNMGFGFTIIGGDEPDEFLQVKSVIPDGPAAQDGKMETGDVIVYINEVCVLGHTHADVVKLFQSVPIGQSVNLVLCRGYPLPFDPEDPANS

Usually pKd stands for the negative decadic logarithm of the Kd, by convention in mol/L.

Chain of FRMPD4, Q14CM0 (Q14CM0 67-160): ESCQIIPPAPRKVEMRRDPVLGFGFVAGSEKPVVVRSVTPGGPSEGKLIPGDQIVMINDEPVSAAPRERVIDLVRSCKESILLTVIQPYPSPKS
Chain of FRMPD3, Q5JV73 (Q5JV73 12-100): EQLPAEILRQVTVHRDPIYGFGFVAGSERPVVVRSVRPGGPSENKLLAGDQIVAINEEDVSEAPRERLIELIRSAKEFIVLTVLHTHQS
Chain of MAGI2_3, Q86UL8 (Q86UL8 600-682): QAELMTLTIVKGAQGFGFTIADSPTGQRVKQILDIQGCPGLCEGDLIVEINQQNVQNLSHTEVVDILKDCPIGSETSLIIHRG
Chain of HTRA2, O43464 (O43464 355-458): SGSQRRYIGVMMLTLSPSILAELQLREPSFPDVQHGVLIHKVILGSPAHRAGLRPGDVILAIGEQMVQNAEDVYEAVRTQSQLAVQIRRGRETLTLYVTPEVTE

Consider KSGKQTMLVV [TRIM29, Q14134;Q14134-2], for which the pKd result in test [1], in test [2], in test [3], in [4], in test [5] and in test [6] was “below the threshold” in each case. Besides, the pKd result in test [7], in test [8], in [9], in [10], in test [11] and in test [12] was “below the threshold” in each case. The negative-log Kd (pKd) entry in test [13], in [14], in test [15], in test [16], in [17] and in [18] was “below the threshold” each time. Further, the pKd entry in test [19] is given as “below the threshold”.

Take LPAHHNATRL [SLC34A1, Q06495;Q06495-1]: the pKd entry is “below the threshold” in test [20]; 5.24 in test [1]; 4.47 in test [21]; “below the threshold” in test [2]; “below the threshold” in test [3]; “below the threshold” in test [22]. Besides, the pKd entry was “below the threshold” in [23]; “below the threshold” in [24]; “below the threshold” in test [4]; “below the threshold” in test [5]; 4.09 in [7]; “below the threshold” in test [8]. In addition, the negative-log Kd (pKd) entry was “below the threshold” in [9]; “below the threshold” in test [10]; 4.31 in test [11]; “below the threshold” in test [12]; “below the threshold” in [13]; “below the threshold” in [14]. In addition, the negative logarithm of the Kd (pKd) in test [15] is 4; in test [16], “below the threshold”; in test [17], “below the threshold”; in [18] it was “below the threshold”; in test [19], “below the threshold”; in test [25], “below the threshold”.

For VYPNAKVELV [PDLIM4_iso2, P50479;P50479-1], the pKd entry in test [20], in [1], in test [21], in test [26], in [2] and in test [3] was “below the threshold” throughout. Further, the pKd result in test [22], in [24], in test [4], in test [5], in test [6] and in test [7] was “below the threshold” throughout. For the same molecule, the pKd entry in [8], in test [9], in [10], in test [11], in test [12] and in test [13] was “below the threshold” throughout. For the same molecule, the pKd result was “below the threshold” in [14]; 3.91 in test [15]; “below the threshold” in test [16]; “below the threshold” in [17]; “below the threshold” in [18]; “below the threshold” in test [19].

YLEPVLSSEL [ATP2A2, P16615;P16615-3]: the pKd result was “below the threshold” in test [20]; 5.47 in test [1]; “below the threshold” in test [21]; “below the threshold” in test [26]; “below the threshold” in test [2]; “below the threshold” in test [3]. Besides, the pKd result in test [22], in test [23], in test [24], in [4], in test [5] and in [6] was “below the threshold” each time. Besides, the negative logarithm of the Kd (pKd) in test [7] is 4.8; in [8], “below the threshold”; in [9], “below the threshold”; in [10] it was “below the threshold”; in [11], “below the threshold”; in test [12], “below the threshold”. Moreover, the negative-log Kd (pKd) result in test [13], in [14], in test [15], in [16], in test [17] and in test [18] was “below the threshold” throughout. Further, the pKd entry in test [25] is recorded as “below the threshold”.

The values above are taken from paper PMC9482650, “Quantitative fragmentomics allow affinity mapping of interactomes” (Nature Communications, 2022).
